Test results reported in paper PMC5391180.

Target: actin filaments of MCF-7 cells, marked by Lifeact-RFP (human (endogenous in MCF-7)) (UniProt P60709)
Assay: FRET or BRET

Chain of GFP-tagged nonmuscle myosin IIC1 (alternatively spliced isoform of nonmuscle myosin heavy chain IIC) (natural protein) (Q7Z406 2-1995): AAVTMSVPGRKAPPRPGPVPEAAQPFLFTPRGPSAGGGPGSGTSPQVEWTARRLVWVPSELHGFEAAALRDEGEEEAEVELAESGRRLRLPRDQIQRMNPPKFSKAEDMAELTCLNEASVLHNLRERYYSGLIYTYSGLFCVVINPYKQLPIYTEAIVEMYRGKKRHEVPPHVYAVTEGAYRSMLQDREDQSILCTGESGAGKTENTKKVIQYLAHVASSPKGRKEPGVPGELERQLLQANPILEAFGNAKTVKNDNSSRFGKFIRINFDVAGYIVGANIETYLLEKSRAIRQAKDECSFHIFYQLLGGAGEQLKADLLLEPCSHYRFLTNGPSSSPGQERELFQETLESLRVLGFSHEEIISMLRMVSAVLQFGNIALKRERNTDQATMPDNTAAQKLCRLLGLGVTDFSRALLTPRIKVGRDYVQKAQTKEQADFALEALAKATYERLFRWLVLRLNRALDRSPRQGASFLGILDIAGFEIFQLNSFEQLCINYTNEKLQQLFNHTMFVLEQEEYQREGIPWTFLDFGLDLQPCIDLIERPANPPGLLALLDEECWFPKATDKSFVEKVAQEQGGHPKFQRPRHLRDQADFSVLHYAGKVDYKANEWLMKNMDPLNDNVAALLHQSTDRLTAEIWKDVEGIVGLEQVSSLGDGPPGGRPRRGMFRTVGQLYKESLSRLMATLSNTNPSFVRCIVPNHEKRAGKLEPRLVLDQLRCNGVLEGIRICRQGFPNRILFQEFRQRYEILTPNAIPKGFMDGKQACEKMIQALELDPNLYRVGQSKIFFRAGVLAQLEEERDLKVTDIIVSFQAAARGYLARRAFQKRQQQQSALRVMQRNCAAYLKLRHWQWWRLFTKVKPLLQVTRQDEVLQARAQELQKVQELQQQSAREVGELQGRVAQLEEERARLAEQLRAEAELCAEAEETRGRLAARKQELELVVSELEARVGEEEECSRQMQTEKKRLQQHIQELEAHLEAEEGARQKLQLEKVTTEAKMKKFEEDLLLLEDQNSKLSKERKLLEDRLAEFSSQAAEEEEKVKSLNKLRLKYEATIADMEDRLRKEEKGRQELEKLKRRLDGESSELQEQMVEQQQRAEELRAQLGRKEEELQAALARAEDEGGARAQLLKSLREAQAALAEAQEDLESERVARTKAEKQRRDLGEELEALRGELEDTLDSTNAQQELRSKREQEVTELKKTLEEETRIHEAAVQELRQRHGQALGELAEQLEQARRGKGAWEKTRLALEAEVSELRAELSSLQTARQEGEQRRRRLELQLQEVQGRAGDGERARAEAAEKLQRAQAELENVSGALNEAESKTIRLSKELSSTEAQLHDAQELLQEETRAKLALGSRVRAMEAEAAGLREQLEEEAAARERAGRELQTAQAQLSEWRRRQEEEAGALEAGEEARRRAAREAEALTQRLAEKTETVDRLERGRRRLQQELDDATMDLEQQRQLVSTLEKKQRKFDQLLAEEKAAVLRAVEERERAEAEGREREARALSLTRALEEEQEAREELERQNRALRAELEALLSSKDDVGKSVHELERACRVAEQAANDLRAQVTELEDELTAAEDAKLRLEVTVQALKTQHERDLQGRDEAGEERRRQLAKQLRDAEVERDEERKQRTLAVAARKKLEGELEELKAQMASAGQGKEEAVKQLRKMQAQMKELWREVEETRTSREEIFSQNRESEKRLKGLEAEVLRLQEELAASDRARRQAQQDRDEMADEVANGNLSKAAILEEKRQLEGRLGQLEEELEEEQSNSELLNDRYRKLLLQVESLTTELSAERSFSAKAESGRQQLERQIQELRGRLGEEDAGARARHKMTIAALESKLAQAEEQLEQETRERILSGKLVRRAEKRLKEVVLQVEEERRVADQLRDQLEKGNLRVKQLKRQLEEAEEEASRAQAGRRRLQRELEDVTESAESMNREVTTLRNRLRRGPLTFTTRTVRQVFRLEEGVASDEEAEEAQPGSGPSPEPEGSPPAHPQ

Substance	dwell time tau, high-FRET state, bleb cortex [s]	longer average dwell time tau2, high-FRET state, cell cortex [s]	shorter average dwell time tau1, high-FRET state, cell cortex [s]
GFP-tagged nonmuscle myosin IIB (nonmuscle myosin heavy chain IIB, NMHC-IIB) (from UniProt P35580 1-1976) (natural protein)	93	110	35
GFP-tagged nonmuscle myosin IIC1 (alternatively spliced isoform of nonmuscle myosin heavy chain IIC) (natural protein)	–	–	35
GFP-tagged nonmuscle myosin IIA (nonmuscle myosin heavy chain IIA, NMHC-IIA) (from UniProt P35579 1-1960) (natural protein)	46	–	33
